Measurements taken from US20140314775A1.

Target: human recombinant adrenomedullin receptor (CRLR+RAMP3) (Homo sapiens)

“human Adrenomedullin (hADM 1-52) (peptide)” was tested, and the EC50 (read off the curve) was 1 nM.
